Results taken from PMC8100066 (2021).

Molecular target: mouse CSL (amino acid residues 53-474), conserved and structurally ordered core domain (mouse, UniProt P31266 53-474)
Experiment: ITC

Sequence of mouse CSL (amino acid residues 53-474), conserved and structurally ordered core domain (P31266 53-474): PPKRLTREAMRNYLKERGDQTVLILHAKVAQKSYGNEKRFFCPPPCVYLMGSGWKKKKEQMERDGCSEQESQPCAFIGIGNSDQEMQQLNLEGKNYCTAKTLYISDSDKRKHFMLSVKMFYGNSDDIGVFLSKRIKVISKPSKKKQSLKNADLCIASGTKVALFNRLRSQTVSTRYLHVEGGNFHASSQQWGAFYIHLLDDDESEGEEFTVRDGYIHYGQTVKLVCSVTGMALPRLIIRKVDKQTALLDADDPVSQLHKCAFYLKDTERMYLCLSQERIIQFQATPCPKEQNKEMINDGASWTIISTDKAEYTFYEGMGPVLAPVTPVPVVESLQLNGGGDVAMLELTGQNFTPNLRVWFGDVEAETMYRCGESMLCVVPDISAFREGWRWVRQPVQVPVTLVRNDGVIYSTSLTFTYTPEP

Row | Ka [M⁻¹] | Binder
1 | 5.49e+06 | ARRKREHSTLWFPEGFKV [human NOTCH3 RAM peptide (residues 1665-1682), nonphosphorylated]
2 | 4.63e+07 | VLLSRKRRRQHGQLWFPEGFKVSEASKK [human NOTCH1 RAM peptide (residues 1754-1781)]
